Measurements: patent US20240182561A1 (Regeneron, published 2024)

How the values were obtained:
[1] = molecular target: T1, human CACNG1 expressed on cells (human, UniProt Q06432 1-222); test: cell-based or functional assay
[2] = molecular target: T2, mouse CACNG1 expressed on cells (mouse, UniProt O70578 1-223); test: cell-based or functional assay
T2 sequence (looked up): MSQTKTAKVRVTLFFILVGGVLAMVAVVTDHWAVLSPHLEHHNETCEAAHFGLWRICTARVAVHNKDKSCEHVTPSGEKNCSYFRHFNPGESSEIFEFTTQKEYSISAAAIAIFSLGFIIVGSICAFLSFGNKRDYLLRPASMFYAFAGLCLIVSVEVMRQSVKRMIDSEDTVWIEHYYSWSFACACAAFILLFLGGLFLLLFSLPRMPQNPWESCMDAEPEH

[3] = molecular target: T1, human CACNG1 expressed on cells; test: imaging cell binding, HEK293/hCACNG1
Method: (§1) HuSKM were seeded in collagen-coated 96-well plates (Greiner Bio-One #655956) at 8,500 cells/well and grown for 24 hours. The growth media was changed to MyoTonic Differentiation Media (Cook Myosite Cat #MD-5555) and replaced every 2 days. Myotubes were assayed after 6 days of differentiation. C2C12 mouse myoblasts were maintained in DMEM with 10% FBS and 1% penicillin-streptomycin supplement and grown in a 37° C. incubator with 5% CO₂. C2C12 cells were seeded in collagen-coated 96-well plates (Greiner Bio-One #655956) at 10,000 cells/well for the cell binding assay and 5,000 cells/well for the cell killing assay. After 24 hours, growth media was replaced with differentiation media (DMEM with 2% horse serum) and placed in a 37° C. incubator with 7.5% CO₂. C2C12 myotubes were assayed after 3 days of differentiation. HEK293/hCACNG1, HEK293/mCACNG1, and HEK293 cells were seeded at 10,000 cells (cell binding assay) or 2,000 (cell killing assay) per well in 96-well black collagen coated plates (Greiner Bio-One, cat #655956) in complete growth media and grown overnight at 37° C. in 5% CO₂.
(§2) Relative binding of anti-CACNG1 antibodies was assessed across the entire panel of cell lines via imaging analysis. […] After one wash with antibody dilution buffer, samples were fixed in CytoFix (BD Biosciences, Cat #554655) diluted 1:1 in PBS and supplemented with a 1:2000 dilution of Hoechst 33342 (Thermo, Cat #H1399) for 20 minutes on ice. Images were acquired with a 10× objective on the Opera Phenix (Perkin Elmer) and relative fluorescence units (RFU) was determined using Harmony software (Perkin Elmer).

[4] = molecular target: T2, mouse CACNG1 expressed on cells; test: imaging cell binding, HEK293/mCACNG1
Method: as §1, §2

[5] = molecular target: T1, human CACNG1 expressed on cells; test: imaging cell binding, HuSKM myotubes
Method: as §1, §2

[6] = molecular target: T3, nanodisc embedded human CACNG1 expressed with a C-terminal PADRE-Flag-His tag (human, UniProt Q06432 1-222); test: SPR, anti-His-captured nanodisc, 25 C
T3 construct: Captured on an anti-His Biacore surface; also called human CACNG1 nanodisc; CACNG1 nanodisc; not shown: C-terminal tag
Method: Equilibrium dissociation constants (KD values) for nanodisc embedded human CACNG1 expressed with a C-terminal […] tag (human CACNG1 nanodisc; concentration 0.82 mg/ml) binding to purified anti-CACNG1 antibodies were determined using a real-time surface plasmon resonance biosensor technology with a Biacore T200 instrument. The CM5 Biacore sensor surface was derivatized by amine coupling with a monoclonal mouse anti-His antibody (Cytiva; Marlborough, MA). All Biacore binding studies were performed in a buffer composed of 0.01M HEPES, 0.15M NaCl, 1 mM CaCl₂, 0.5 mM MgCl₂, pH 7.4 (HBS-N++ running buffer). Different concentrations of anti-CACNG1 antibodies (ranging from 300 nM to 12 nM in 5-fold serial dilutions) prepared in HBS-N++ running buffer were injected over the captured human CACNG1 nanodisc at a flow rate of 30 μL/minute. Antibody association was monitored for 2 minutes while dissociation was monitored in HBS-N++ running buffer for 5 minutes. At the end of each cycle, the human CACNG1 nanodisc capture surface was regenerated using three 10 second injections of 10 mM Gly pH1.5. All binding kinetics experiments were performed at 25° C.
The specific SPR-Biacore sensorgrams were obtained by a double referencing procedure. The double referencing was performed by first subtracting the signal of each injection over a reference surface (anti-His) from the signal over the experimental surface (anti-His captured human CACNG1 nanodisc) thereby removing contributions from refractive index changes. In addition, running buffer injections were performed to allow subtraction of the signal changes resulting from the dissociation of captured antibodies from the coupled anti-His surface. Kinetic association (kₐ) and dissociation ([…]) rate constants were determined by fitting the real-time sensorgrams to a 1:1 binding model using Scrubber v2.0c curve fitting software. Binding dissociation equilibrium constants (KD) and dissociative half-lives (t %) were calculated from the kinetic rate constants as: […]

[7] = molecular target: T2, mouse CACNG1 expressed on cells; test: imaging cell binding, C2C12 mouse myotubes
Method: as §1, §2

T3 sequence (Q06432 whole entry): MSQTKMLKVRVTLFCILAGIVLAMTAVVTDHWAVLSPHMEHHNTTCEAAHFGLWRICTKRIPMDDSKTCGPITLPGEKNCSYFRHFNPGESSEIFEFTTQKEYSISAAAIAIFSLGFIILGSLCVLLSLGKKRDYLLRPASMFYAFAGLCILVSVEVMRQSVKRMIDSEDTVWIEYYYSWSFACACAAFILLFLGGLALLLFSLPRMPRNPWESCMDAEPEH
T1 sequence (Q06432 whole entry): as above

B1: H2aM31941N (antibody, mouse IgG1, kappa, V domains shown)
VH: QVQLVQSGAEVKKPGASVKVSCKASGYAFTTYGITWVRQAPGQGLEWMGWISAYNGNTNYAEKVQGRFTMTTDTSTNTAYMELRSLRSDDTAVYFCARKGHYGSGTYYNPFGFDFWGQGTMVTVSS
VL: EIMLMQSPGTLSLSPGERATLSCRASQSVSSSYLAWYQQKPGQAPRLLIYGASSRATDIPDRFSGSGSGTDFTLTISRLEPEDFAVYFCQQYYGSPWTFGQGTKVEIKR
notes: Both names are treated as one molecule; also called H1M31941N; lot H1M31941N-L1
- % KILL, indirect cell killing, HEK293/hCACNG1 [1]: 95.4%
- % KILL, indirect cell killing, HuSKM [1]: 91.2%
- EC50/IC50, indirect cell killing, HEK293/hCACNG1 [1]: 2.17 pM
- EC50/IC50, indirect cell killing, HuSKM [1]: 112 pM
- % KILL, indirect cell killing, C2C12 [2]: 0.4%
- % KILL, indirect cell killing, HEK293/mCACNG1 [2]: 4.9%
- EC50/IC50, indirect cell killing, C2C12 [2]: > 10 nM
- EC50/IC50, indirect cell killing, HEK293/mCACNG1 [2]: > 1000 pM
- EC50 [3]: 0.21 nM
- S/N [3]: 51.2 fold
- S/N [4]: 1.4 fold
- EC50 [5]: 0.13 nM
- S/N [5]: 559 fold
- Kd [6]: 1.19 nM
- koff [6]: 0.000406 s⁻¹
- kon [6]: 342000 M⁻¹ s⁻¹
- mAb bound at 300 nM [6]: 19 RU
- t1/2 [6]: 28.4 min
- S/N [7]: 1.2 fold
- binding result [7]: no binding (tested: 100 nM highest tested)

B2: REGN10715 (antibody, human IgG4 S228P, kappa)
heavy: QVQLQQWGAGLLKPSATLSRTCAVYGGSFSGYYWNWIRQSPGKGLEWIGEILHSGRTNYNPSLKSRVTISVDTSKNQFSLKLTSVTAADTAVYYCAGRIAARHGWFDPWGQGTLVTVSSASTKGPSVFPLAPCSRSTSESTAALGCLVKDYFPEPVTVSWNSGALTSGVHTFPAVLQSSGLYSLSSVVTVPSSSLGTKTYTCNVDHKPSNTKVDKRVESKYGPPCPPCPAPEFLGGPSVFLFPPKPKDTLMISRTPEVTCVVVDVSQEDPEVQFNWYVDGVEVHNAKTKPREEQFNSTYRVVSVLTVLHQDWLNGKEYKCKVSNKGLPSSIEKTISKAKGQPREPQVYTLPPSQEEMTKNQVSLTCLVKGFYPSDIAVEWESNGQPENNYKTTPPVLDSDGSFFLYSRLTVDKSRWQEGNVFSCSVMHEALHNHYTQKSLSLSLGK
light: DIQMTQSPSSVSTSVGDRVTISCRASQDIRKWLAWYQQKPGKAPKLLIYATSSLQSGVPSRFSGSGSGTDFTLTISSLQPEDFATYFCQQANSFPFTFGQGTKLEIKRTVAAPSVFIFPPSDEQLKSGTASVVCLLNNFYPREAKVQWKVDNALQSGNSQESVTEQDSKDSTYSLSSTLTLSKADYEKHKVYACEVTHQGLSSPVTKSFNRGEC
notes: hIgG4
- % KILL, indirect cell killing, HEK293/hCACNG1 [1]: 96.4%
- % KILL, indirect cell killing, HuSKM [1]: 99.6%
- EC50/IC50, indirect cell killing, HEK293/hCACNG1 [1]: 0.629 pM
- EC50/IC50, indirect cell killing, HuSKM [1]: 9.7 pM
- % KILL, indirect cell killing, C2C12 [2]: 99.8%
- % KILL, indirect cell killing, HEK293/mCACNG1 [2]: 96.1%
- EC50/IC50, indirect cell killing, C2C12 [2]: 0.00469 nM
- EC50/IC50, indirect cell killing, HEK293/mCACNG1 [2]: 0.187 pM
- EC50 [3]: 2.7 nM
- S/N [3]: 91.3 fold
- EC50 [4]: 0.26 nM
- S/N [4]: 69.4 fold
- EC50 [5]: 0.2 nM
- S/N [5]: 1060 fold
- Kd [6]: 1.98 nM
- koff [6]: 0.000301 s⁻¹
- kon [6]: 152000 M⁻¹ s⁻¹
- mAb bound at 300 nM [6]: 31 RU
- t1/2 [6]: 38.4 min
- EC50 [7]: 2.3 nM
- S/N [7]: 8.4 fold

B3: REGN10728 (antibody, human IgG4 S228P, kappa)
heavy: QVQLVESGGGVVQPGRSLRLSCTASGITFRNYGMHWVRQAPGKGLEWVAVMWYDGSNKYYADSVKGRFTISGDNSKVYLQMNSLRAEDTAVYYCARRGTIRTAAPFDYWGQGTLVTVSSASTKGPSVFPLAPCSRSTSESTAALGCLVKDYFPEPVTVSWNSGALTSGVHTFPAVLQSSGLYSLSSVVTVPSSSLGTKTYTCNVDHKPSNTKVDKRVESKYGPPCPPCPAPGGGGPSVFLFPPKPKDTLMISRTPEVTCVVVDVSQEDPEVQFNWYVDGVEVHNAKTKPREEQFNSTYRVVSVLTVLHQDWLNGKEYKCKVSNKGLPSSIEKTISKAKGQPREPQVYTLPPSQEEMTKNQVSLTCLVKGFYPSDIAVEWESNGQPENNYKTTPPVLDSDGSFFLYSRLTVDKSRWQEGNVFSCSVMHEALHNHYTQKSLSLSLGK
light: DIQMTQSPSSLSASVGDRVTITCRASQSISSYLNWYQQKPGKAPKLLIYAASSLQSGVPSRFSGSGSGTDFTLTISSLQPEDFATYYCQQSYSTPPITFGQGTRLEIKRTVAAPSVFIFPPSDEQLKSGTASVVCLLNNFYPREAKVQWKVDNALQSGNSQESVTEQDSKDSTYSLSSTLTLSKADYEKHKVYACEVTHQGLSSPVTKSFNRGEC
notes: also called H2aM31929N/REGN10728; CACNG1 hIgG4 uber stealth antibody
- % KILL, indirect cell killing, HEK293/hCACNG1 [1]: 95.8%
- % KILL, indirect cell killing, HuSKM [1]: 99.3%
- EC50/IC50, indirect cell killing, HEK293/hCACNG1 [1]: 0.519 pM
- EC50/IC50, indirect cell killing, HuSKM [1]: 38.1 pM
- % KILL, indirect cell killing, C2C12 [2]: 1.6%
- % KILL, indirect cell killing, HEK293/mCACNG1 [2]: 5.1%
- EC50/IC50, indirect cell killing, C2C12 [2]: > 10 nM
- EC50/IC50, indirect cell killing, HEK293/mCACNG1 [2]: > 1000 pM
- EC50 [3]: 2.4 nM
- S/N [3]: 138 fold
- S/N [4]: 0.8 fold
- EC50 [5]: 1.3 nM
- S/N [5]: 467 fold
- S/N [7]: 1.8 fold
- binding result [7]: no binding (tested: 100 nM highest tested)

B4: H2aM31944N (antibody, mouse IgG2a, kappa, V domains shown)
VH: QVQLVESGGGVVQPGRSLRLSCEASGITFRNYGMHWVRQAPGKGLEWVAVMWYDGSNKYYADSVKGRFTISRDNSKNTVYLQMNSLRAEDTAVYYCARRGHIATAAPFDYWGQGTLVTVSS
VL: DIQMTQSPSSLSASVGDRVTISCRASQSISSYLNWYQQKPGKAPKVLMYAASSLQSGVPSRFSGSGSGTDFTLTISSLQPEDFATYYCQQSYSTPPITFGQGTRLEIKR
notes: mIgG2a; also called CACNG1 mIgG2a antibody
- % KILL, indirect cell killing, HEK293/hCACNG1 [1]: 95.7%
- % KILL, indirect cell killing, HuSKM [1]: 98.6%
- EC50/IC50, indirect cell killing, HEK293/hCACNG1 [1]: 0.356 pM
- EC50/IC50, indirect cell killing, HuSKM [1]: 11.6 pM
- % KILL, indirect cell killing, C2C12 [2]: 0%
- % KILL, indirect cell killing, HEK293/mCACNG1 [2]: 4.3%
- EC50/IC50, indirect cell killing, C2C12 [2]: > 10 nM
- EC50/IC50, indirect cell killing, HEK293/mCACNG1 [2]: > 1000 pM
- EC50 [3]: 3.3 nM
- S/N [3]: 93.4 fold
- EC50 [4]: > 100 nM
- S/N [4]: 2.2 fold
- EC50 [5]: 0.48 nM
- S/N [5]: 321 fold
- Kd [6]: 17.1 nM
- koff [6]: 0.00395 s⁻¹
- kon [6]: 231000 M⁻¹ s⁻¹
- mAb bound at 300 nM [6]: 16 RU
- t1/2 [6]: 2.9 min
- S/N [7]: 0.7 fold

B5: REGN7660 (antibody, human IgG4 S228P, kappa, V domains shown)
VH: EVQLVESGGGLVQPGGSLKLSCTASGLTLSDSAMHWVRQASGKGLEWVGRIRNKANRYATEYAASVKGRFTISRDDSKNTAYLQMNSLKTEDTAVYYCTRNWKIFLFDYWGQGTLVTVSS
VL: EIVLTQSPGTLTLSPGERATLSCRASQSVGSKYLAWFQQKRGQAPRLLIYGASSRTSGIPDRISGSGSGTDFTLTISRLEPEDFAVYYCQQYGSSPWTFGQGTKVEIKR
notes: hIgG4
- % KILL, indirect cell killing, C2C12 [2]: 99.8%
- % KILL, indirect cell killing, HEK293/mCACNG1 [2]: 92.3%
- EC50/IC50, indirect cell killing, C2C12 [2]: 0.0237 nM
- EC50/IC50, indirect cell killing, HEK293/mCACNG1 [2]: 13.4 pM
- EC50 [4]: > 100 nM
- S/N [4]: 7.2 fold
- Kd [6]: 12.6 nM
- koff [6]: 0.0243 s⁻¹
- kon [6]: 1.93e+06 M⁻¹ s⁻¹
- mAb bound at 300 nM [6]: 23 RU
- t1/2 [6]: 0.5 min
- S/N [7]: 1 fold

B6: REGN10713 (antibody, human IgG4 S228P, lambda)
heavy: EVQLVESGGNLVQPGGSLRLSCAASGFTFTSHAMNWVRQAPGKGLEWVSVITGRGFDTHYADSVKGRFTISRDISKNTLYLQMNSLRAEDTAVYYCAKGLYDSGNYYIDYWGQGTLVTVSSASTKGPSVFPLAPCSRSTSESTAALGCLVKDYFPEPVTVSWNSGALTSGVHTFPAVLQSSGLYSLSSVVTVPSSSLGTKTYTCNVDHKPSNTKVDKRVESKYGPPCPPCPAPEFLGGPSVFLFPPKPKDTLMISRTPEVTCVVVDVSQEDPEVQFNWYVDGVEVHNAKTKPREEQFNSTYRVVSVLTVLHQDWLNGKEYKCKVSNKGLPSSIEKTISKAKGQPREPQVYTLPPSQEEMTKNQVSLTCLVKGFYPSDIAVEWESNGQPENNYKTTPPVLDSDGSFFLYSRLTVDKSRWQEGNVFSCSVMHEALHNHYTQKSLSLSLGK
light: QSVLTQPPSVSAAPGQKVTISCSGSSSNIGNNYVSWYQQLPGTAPKLLIYDNNKRPSGIPDRFSGSKSGTSATLGITGLQTGDEADYYCGTWDLSLSFNWVFGGGTKLTVLGQPKAAPSVTLFPPSSEELQANKATLVCLISDFYPGAVTVAWKADSSPVKAGVETTTPSKQSNNKYAASSYLSLTPEQWKSHRSYSCQVTHEGSTVEKTVAPTECS
notes: hIgG4
- % KILL, indirect cell killing, C2C12 [2]: 0%
- % KILL, indirect cell killing, HEK293/mCACNG1 [2]: 2.4%
- EC50/IC50, indirect cell killing, C2C12 [2]: > 10 nM
- EC50/IC50, indirect cell killing, HEK293/mCACNG1 [2]: > 1000 pM
- EC50 [4]: > 100 nM
- S/N [4]: 2.7 fold
- Kd [6]: 0.635 nM
- koff [6]: 4.72e-05 s⁻¹
- kon [6]: 74200 M⁻¹ s⁻¹
- mAb bound at 300 nM [6]: 53 RU
- t1/2 [6]: 245 min
- S/N [7]: 2 fold
